According to patent US20210163591A1 (TEL HASHOMER MEDICAL RESEARCH INFRASTRUCTURE AND SERVICES, published 2021):

Columns and labels:
[1] = target: T1, human GABRA2 (SEQ ID NO: 21) (human, UniProt P47869 29-251); experiment: Biacore SPR, antibody immobilized on CM5 chip, GABRA2 as analyte, single-dose kinetics
T1 construct: The Biacore method says only 'Diluted GABRA2'; I took it to be the same antigen; also called GABRA2 protein; human GABRA2 antigen
T1 sequence: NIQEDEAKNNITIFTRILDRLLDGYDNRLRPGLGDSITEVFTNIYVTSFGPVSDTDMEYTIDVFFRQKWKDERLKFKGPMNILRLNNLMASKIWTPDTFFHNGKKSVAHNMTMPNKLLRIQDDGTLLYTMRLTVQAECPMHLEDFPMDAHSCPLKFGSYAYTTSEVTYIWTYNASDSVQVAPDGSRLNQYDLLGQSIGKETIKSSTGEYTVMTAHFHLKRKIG
Experimental: (§1) Biacore analysis—Antibody was immobilized onto a CM5 sensor chip (Cat No. BR-1005-30) under 25° C. while HBS-EP was used as the running buffer. The sensor chip surface of flow cells 1 and 2 were activated by freshly mixed 50 mmol/1 N-Hydroxysuccinimide (NHS) and 200 mmol/I 1-ethyl-3-(3-dimethylaminopropyl) carbodiimide hydrochloride (EDC) for 200s ([…]). Afterwards, the antibody diluted in 10 mml/l NaAC (pH 4.5) was injected into flow cell 2 to achieve conjugation of 300 Response Unit respectively, while flow cell 1 was set as blank. After the amine coupling reaction, the remaining active coupling sites on chip surface were blocked with 200s injection of 1 mol/l ethanolamine hydrochloride. […] Diluted GABRA2 was injected over the surface as association phase, followed by injecting running buffer as dissociation phase. Data was processed using the Biacore 8K Evaluation software version 1.1. Flow cell 1 and blank injection of buffer in each cycle were used as double reference for Response Unit subtraction.

[2] = target: T1, human GABRA2 (SEQ ID NO: 21); experiment: Biacore SPR, antibody immobilized on CM5 chip, GABRA2 as analyte, single-cycle kinetics
Experimental: as §1

B1: antibody U6882DH130_13, purified from hybridoma 10C5B9 (antibody, V domains shown)
VH: EVQLQQSGAELVKPGASVKLSCTASGFNIKDTYMYWVKQRPEQGLEWIGRIDPANGNTKYDPKFQGKATITADTSSNTAYLQLSSLTSEDTAVYYCASNYYGSFDYWGQGTTLTVSS
VL: DIQMTQTTSSLSASLGDRVTISCRASQDISNYLNWYQQKPDGTVKLLIYYTSRLHSGVPSRFSGSGSGTDYSLTISNLEQEDIATYFCQQGNTLPPTFGGGTKLEIK
notes: also called U6882DH130_13 Antibody; Antibody from clone10C5B9
- Kd [1]: 0.251 nM
- koff [1]: 1.58e-05 s⁻¹
- kon [1]: 62800 M⁻¹ s⁻¹
- Kd [2]: 0.388 nM
- koff [2]: 5.42e-05 s⁻¹
- kon [2]: 140000 M⁻¹ s⁻¹
